This assay addresses SARS-COV-2 spike protein, ancestral Hu-1, on retroviral pseudotyped virus (SARS-COV-2, UniProt P0DTC2 14-1273). Nature of the assay: cell-based or functional assay.

B1: CB6-dIgA2 (dimeric chimeric IgA2 of monoclonal antibody CB6 with J chain) (antibody)
heavy: ASEVQLVESGGGLVQPGGSLRLSCAASGFTVSSNYMSWVRQAPGKGLEWVSVIYSGGSTFYADSVKGRFTISRDNSMNTLFLQMNSLRAEDTAVYYCARVLPMYGDYLDYWGQGTLVTVSSASTKGPSVFPLAPSSKSTSGASPTSPKVFPLSLDSTPQDGNVVVACLVQGFFPQEPLSVTWSESGQNVTARNFPPSQDASGDLYTTSSQLTLPATQCPDGKSVTCHVKHYTNPSQDVTVPCPVPPPPPCCHPRLSLHRPALEDLLLGSEANLTCTLTGLRDASGATFTWTPSSGKSAVQGPPERDLCGCYSVSSVLPGCAQPWNHGETFTCTAAHPELKTPLTANITKSGNTFRPEVHLLPPPSEELALNELVTLTCLARGFSPKDVLVRWLQGSQELPREKYLTWASRQEPSQGTTTFAVTSILRVAAEDWKKGDTFSCMVGHEALPLAFTQKTIDRLAGKPTHVNVSVVMAEVDGTCY
light: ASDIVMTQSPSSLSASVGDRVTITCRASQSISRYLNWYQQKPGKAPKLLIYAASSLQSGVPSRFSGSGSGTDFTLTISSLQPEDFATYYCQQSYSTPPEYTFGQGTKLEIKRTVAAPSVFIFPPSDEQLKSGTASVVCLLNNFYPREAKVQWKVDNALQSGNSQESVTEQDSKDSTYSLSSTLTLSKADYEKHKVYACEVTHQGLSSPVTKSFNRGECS
J chain: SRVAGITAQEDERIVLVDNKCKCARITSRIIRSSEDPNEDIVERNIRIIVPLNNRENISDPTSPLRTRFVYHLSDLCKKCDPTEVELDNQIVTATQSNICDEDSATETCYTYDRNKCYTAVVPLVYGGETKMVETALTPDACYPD
As to B1, the “IC50 of pseudotyped virus entry, fold against the IgG version” value came to 2.5 fold.

Source of the values: patent US20240288440A1 (MACFARLANE BURNET INSTITUTE FOR MEDICAL RESEARCH AND PUBLIC …, published 2024).
